The record followed here is PMC4914982.

Targets include sfGFP-N149Y; sfGFP-N149Y/Q204H; sfGFP-N149Y/Q204H/I167T; sfGFP-N149Y/Q204H/I188V; sfGFP-Q204H.
Experiment in all cases: SEC + native gel or EMSA; SEC: Superdex S200 10/300 GL, PBS pH 7.4, approximately 500 ul of 1 mg/ml protein injected, UV 280 nm; semi-native PAGE: 12% SDS-PAGE, Laemmli buffer with 0.2% SDS and 12.5 mM EDTA, no beta-mercaptoethanol, samples not heated; monomer to dimer
(A gel shift assay detects complexes by their altered migration in electrophoresis.)

Experiment [1] deals with sfGFP-N149Y/Q204H/I167T/I188V.

On to sfGFP-N149Y, for which the stoichiometry N in the experiment with sfGFP-N149Y came out at 2. Turning to sfGFP-N149Y/Q204H, the stoichiometry N with sfGFP-N149Y/Q204H turned out to be 2. As to sfGFP-N149Y/Q204H/I167T, the stoichiometry N with sfGFP-N149Y/Q204H/I167T was found to be 2.

On to sfGFP-N149Y/Q204H/I167T/I188V, for which the stoichiometry N in experiment [1] came to 2. Consider sfGFP-N149Y/Q204H/I188V, for which the stoichiometry N with sfGFP-N149Y/Q204H/I188V stood at 2. In the case of sfGFP-Q204H, the stoichiometry N with sfGFP-Q204H amounted to 2.

One may read the stoichiometry N as the number of molecules, sites or subunits per partner or assembly.
